± gives the uncertainty stated by the source.
Assay: self-splicing fitness, log relative to wild type (ln ratio); higher = more splicing; Tetrahymena group I intron in knt gene, E. coli kanamycin selection, DiMSum; sequences stand for … in CUCUCU…GGAGGGAAAAGUUAUCAGGCAUGCACCUGGUAGCUAGUCUUUAAACCAAUAGAUUGCAUCGGUUUAAAAGGCAAGACCGUCAAAUUGCGGGAAAGGGGUCAACAGCCGUUCAGUACCAAGUCUCAGGGGAAACUUUGAGAUGGCCUUGCAAAGGGUAUGGUAAUAAGCUGACGGACAUGGUCCUAACCACGCAGCCAAGUCCUAAGUCAACAGAUCUUCUGUUGAUAUGGAUGCAGUUCACAGACUAAAUGUCGGUCGGGGAAGAUGUAUUCUUCUCAUAAGAUAUAGUCGGACCUCUCCUUAAUGGGAGCUAGCGGAUGAAGUGAUGCAACACUGGAGCCGCUGGGAACUAAUUUGUAUGCGAAAGUAUAUUGAUUAGUUUUGGAGUACUCGUGGUCG
Outline: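 Fitness was computed with DiMSum as the error-weighted combination of replicate fold changes, kanamycin versus none, each normalised to wild type. The library randomised all eight intron nucleotides of the P1ex region, with the intron placed in the knt kanamycin-resistance gene on pET-22b(+) in E. coli BL21(DE3). Six replicate transformations were grown overnight at 37°C or 30°C on LB agar with or without 25 μg/mL kanamycin, plus 100 μg/mL carbenicillin, 50 μM IPTG and 0.2% rhamnose. Pooled colonies were amplicon-sequenced on an Illumina HiSeq 2500.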

Sequence | self-splicing fitness (ln) (30 °C) | self-splicing fitness (ln) (37 °C)
UCUCAGCAAUAUUACGUUGA | -2.9 ± 0.2 | -2.93 ± 0.24
UGGUAGCAAUAUUACGCGGA | -1.86 ± 0.15 | -0.911 ± 0.17
UGGGAGCAAUAUUACGGUAA | -2.32 ± 0.45 | –
GAAAAGCAAUAUUACGUCCG | -1.72 ± 0.12 | -0.481 ± 0.14
GAUUAGCAAUAUUACGCGAG | -2.28 ± 0.17 | -0.865 ± 0.12
CAUUAGCAAUAUUACGAGCU | -2.57 ± 0.33 | -2.7 ± 0.44
CAUGAGCAAUAUUACGCAAU | -3.1 ± 0.38 | –
GAUCAGCAAUAUUACGUAUC | -3.17 ± 0.21 | -2.62 ± 0.21
CUCAAGCAAUAUUACGUGCU | -4.3 ± 0.24 | -2.73 ± 0.17
AUGGAGCAAUAUUACGACUA | -1.08 ± 0.14 | -1.33 ± 0.16
UGUGAGCAAUAUUACGGCUU | -2.85 ± 0.27 | -1.81 ± 0.23
AGCCAGCAAUAUUACGGUGA | -1.82 ± 0.091 | -1.2 ± 0.089
GAUGAGCAAUAUUACGAAGC | -1.4 ± 0.41 | 0.175 ± 0.21
UAUAAGCAAUAUUACGCGUU | -2.67 ± 0.14 | -0.931 ± 0.12
CGCAAGCAAUAUUACGUGCU | -0.881 ± 0.069 | -0.489 ± 0.081
GCUGAGCAAUAUUACGAUUG | -4.26 ± 0.32 | -3.02 ± 0.22
GUGUAGCAAUAUUACGUCCC | -0.132 ± 0.21 | -0.385 ± 0.23
GAAAAGCAAUAUUACGCAGG | -2.07 ± 0.076 | -1.85 ± 0.087
UGUUAGCAAUAUUACGGACC | 0.127 ± 0.12 | 0.443 ± 0.16
CCAAAGCAAUAUUACGCAUC | -3.89 ± 0.16 | -3.05 ± 0.16
AGCAAGCAAUAUUACGGCCA | -0.0326 ± 0.088 | -0.0437 ± 0.12
GACCAGCAAUAUUACGUACC | -0.415 ± 0.08 | -0.106 ± 0.098
UGAUAGCAAUAUUACGCAGA | -3.31 ± 0.24 | -1.38 ± 0.11
GAGGAGCAAUAUUACGGCCU | -1.99 ± 0.38 | –

Sequence | self-splicing fitness (ln) (30 °C) | self-splicing fitness (ln) (37 °C)
AAUGAGCAAUAUUACGUAUA | -3.43 ± 0.17 | -1.93 ± 0.13
ACUUAGCAAUAUUACGGCCG | -0.516 ± 0.071 | -0.251 ± 0.11
UGUGAGCAAUAUUACGCACU | -2.44 ± 0.16 | -0.665 ± 0.12
GGGUAGCAAUAUUACGCCCG | -1.88 ± 0.25 | -1.32 ± 0.17
ACUAAGCAAUAUUACGGCGG | -0.98 ± 0.07 | -0.452 ± 0.1
GAAUAGCAAUAUUACGGUAG | -2.88 ± 0.12 | -2.22 ± 0.16
GCGCAGCAAUAUUACGUUGU | -3.03 ± 0.13 | -1.24 ± 0.12
CCUCAGCAAUAUUACGAGUG | -2.34 ± 0.14 | -0.953 ± 0.14
GCGCAGCAAUAUUACGAGAG | -3.03 ± 0.19 | -1.35 ± 0.1
UGAUAGCAAUAUUACGCCUA | -0.439 ± 0.15 | -0.227 ± 0.16
CUCAAGCAAUAUUACGGACG | -0.792 ± 0.063 | 0.266 ± 0.095
CCCAAGCAAUAUUACGCUCA | -3.73 ± 0.27 | -3.23 ± 0.25
CGCCAGCAAUAUUACGCCUA | -3 ± 0.36 | -1.98 ± 0.32
UAGAAGCAAUAUUACGGAUG | -1.41 ± 0.099 | -0.694 ± 0.12
AGAUAGCAAUAUUACGGCGU | -0.0254 ± 0.091 | 0.663 ± 0.1
UUUGAGCAAUAUUACGUCCC | -2.9 ± 0.22 | -2.15 ± 0.33
AGCUAGCAAUAUUACGUCUA | -1.49 ± 0.11 | -0.745 ± 0.13
UAAUAGCAAUAUUACGAUUG | 0.193 ± 0.068 | 0.0133 ± 0.076
UCCAAGCAAUAUUACGAGGU | -3.4 ± 0.14 | -1.8 ± 0.11
UUUUAGCAAUAUUACGGGUU | – | -2.26 ± 0.29
GCCGAGCAAUAUUACGCCUC | -2.91 ± 0.42 | -1.88 ± 0.4
AACCAGCAAUAUUACGAAGG | -3.19 ± 0.23 | -1.8 ± 0.22
GAUGAGCAAUAUUACGUAAU | -2.8 ± 0.23 | -1.55 ± 0.28
UUUCAGCAAUAUUACGGCCU | -3.87 ± 0.47 | -1.33 ± 0.25
